Paper PMC3201873

Target: B′ protein (GyrB C-terminal domain) of M. tuberculosis DNA gyrase (M. tuberculosis)
Test: […]) in 50 mM Tris–HCl

Question: With “B′ protein (GyrB C-terminal domain) of M. tuberculosis DNA gyrase (domain or fragment)” as the substance, how does the Kd read?
Answer: Its Kd is under 1000 nM.
